# Experimental data taken from patent US12551525B2, “Collagen peptide-based medicament compositions and devices and methods of production and use thereof” (SUSTAIN HOLDINGS, LLC, priority 2017, dated 2026).
# System: corneal epithelium in wounded mouse eyes
# Experiment: In vivo healing of mouse corneal epithelium (corneal wound model, fluorescein staining)
# Parameters: species or system mouse (C57BL/6)
# Details: positive control, 100 ng/ml; 16 hours post-wounding; compared to Cmpd 3 and Cmpd 10
# Protocol: The FIG. 1s a series of photomicrographs depicting the healing of a wound in the cornea of mouse eye, at time 0 and 16 hours post-wounding, upon treatment with certain compositions of the present invention. Wounds were introduced into the corneas of mice, and the mice treated immediately after wounding with vehicle (PBS), with 100 ng/ml of epidermal growth factor (EGF), or with 25 nM (about 3 mg/kg) of a (Pro-Pro-Gly)7 CMP of the invention (SEQ ID NO:1) (“Cmpd 3”), or of a (Hyp-Pro-Gly)7-SubP CMP-TC of the invention (SEQ ID NO:390) (“Cmpd 10”).
# To examine the possible therapeutic effects of CMPs and CMP-TC conjugates of the invention, studies were designed to test certain CMPs and CMP-TC conjugates in an in vivo setting—the healing of the corneal epithelium in wounded mouse eyes. […] Wound size at various time points over 48 hours was examined by fluorescein staining (see Carlson et al., id.), and documented via fluorescent photomicrography, and quantified using Image J software (see Rush, J. S. et al., Investig. Ophthalmol. Visual Sci. 57 (14): 5864-5871 (2016); Rush, J. S. et al., Investig. Ophthalmol. Visual Sci. 55 (8): 4691-4699 (2014)). […]
molecule,measurement,value
"epidermal growth factor (protein, UniProt P01133 23-1207, looked up, Pro-epidermal growth factor, positive control growth factor) Pro-epidermal growth factor: PQHWSCPEGTLAGNGNSTCVGPAPFLIFSHGNSIFRIDTEGTNYEQLVVDAGVSVIMDFHYNEKRIYWVDLERQLLQRVFLNGSRQERVCNIEKNVSGMAINWINEEVIWSNQQEGIITVTDMKGNNSHILLSALKYPANVAVDPVERFIFWSSEVAGSLYRADLDGVGVKALLETSEKITAVSLDVLDKRLFWIQYNREGSNSLICSCDYDGGSVHISKHPTQHNLFAMSLFGDRIFYSTWKMKTIWIANKHTGKDMVRINLHSSFVPLGELKVVHPLAQPKAEDDTWEPEQKLCKLRKGNCSSTVCGQDLQSHLCMCAEGYALSRDRKYCEDVNECAFWNHGCTLGCKNTPGSYYCTCPVGFVLLPDGKRCHQLVSCPRNVSECSHDCVLTSEGPLCFCPEGSVLERDGKTCSGCSSPDNGGCSQLCVPLSPVSWECDCFPGYDLQLDEKSCAASGPQPFLLFANSQDIRHMHFDGTDYGTLLSQQMGMVYALDHDPVENKIYFAHTALKWIERANMDGSQRERLIEEGVDVPEGLAVDWIGRRFYWTDRGKSLIGRSDLNGKRSKIITKENISQPRGIAVHPMAKRLFWTDTGINPRIESSSLQGLGRLVIASSDLIWPSGITIDFLTDKLYWCDAKQSVIEMANLDGSKRRRLTQNDVGHPFAVAVFEDYVWFSDWAMPSVMRVNKRTGKDRVRLQGSMLKPSSLVVVHPLAKPGADPCLYQNGGCEHICKKRLGTAWCSCREGFMKASDGKTCLALDGHQLLAGGEVDLKNQVTPLDILSKTRVSEDNITESQHMLVAEIMVSDQDDCAPVGCSMYARCISEGEDATCQCLKGFAGDGKLCSDIDECEMGVPVCPPASSKCINTEGGYVCRCSEGYQGDGIHCLDIDECQLGEHSCGENASCTNTEGGYTCMCAGRLSEPGLICPDSTPPPHLREDDHHYSVRNSDSECPLSHDGYCLHDGVCMYIEALDKYACNCVVGYIGERCQYRDLKWWELRHAGHGQQQKVIVVAVCVVVLVMLLLLSLWGAHYYRTQKLLSKNPKNPYEESSRDVRSRRPADTEDGMSSCPQPWFVVIKEHQDLKNGGQPVAGEDGQAADGSMQPTSWRQEPQLCGMGTEQGCWIPVSSDKGSCPQVMERSFHMPSYGTQTLEGGVEKPHSLLSANPLWQQRALDPPHQMELTQ",wound healing in mouse cornea and corneal stroma (reduction in diameter and intensity of fluorescein fluorescence),a lower level of healing
